{"source": "paper PMC9477746", "about": "“Mechanism of AAA+ ATPase-mediated RuvAB–Holliday junction branch migration” (Nature, 2022)", "binders": {"B1": {"name": "N-terminally truncated RuvB (16-333) from S. thermophilus (domain or fragment, UniProt Q03IE9 16-333, looked up)", "chain": "VERTLRPQYFKEYIGQDKVKDQLKIFIEAAKLRDEALDHTLLFGPPGLGKTTMAFVIANEMGVNLKQTSGPAIEKAGDLVAILNDLEPGDILFIDEIHRMPMAVEEVLYSAMEDYYIDIMIGAGETSRSVHLDLPPFTLVGATTRAGMLSNPLRARFGINGHMEYYELPDLTEIVERTSEIFEMTITPEAALELARRSRGTPRIANRLLKRVRDYAQIMGDGVIDDKIADQALTMLDVDHEGLDYVDQKILRTMIEMYGGGPVGLGTLSVNIAEERETVEDMYEPYLIQKGFIMRTRTGRVATAKAYEHMGYDYTRDN", "notes": "RuvB, Holliday junction AAA+ ATPase, Streptococcus thermophilus, residues 16-333; domains RuvB^L 21-181, RuvB^S 182-254, RuvB^H 255-330; C-terminal TEV site, linker and HA tag; TEV cleavage done during dialysis, so residues of the TEV site may remain at the C-terminus; Tetrameric by gel filtration in solution, hexamer on DNA in the cryo-EM complex; also called RuvB (S. thermophilus); RuvB motor; …"}}, "key": {"[1]": {"target": "the molecule itself", "assay": "SEC; Superdex 200 10/300GL, 100 mM NaCl, 1 mM EDTA, 0.5 mM DTT, 5% glycerol, 100 mM Tris-HCl pH 8; each protein alone; mass estimated from retention of a gel filtration standard"}, "[2]": {"target": "the molecule itself", "assay": "cryo-EM structure; in vitro reconstituted RuvAB-Holliday junction hetero-complex: SEC-purified RuvA-HJ mixed with RuvB, 10 mM MgCl2, equimolar ATPγS and ADP (1 mM), 37 °C 10 min, then on ice about 5 h before vitrification (dataset t2)"}, "RuvA": {"target": "T1, RuvA (Salmonella typhimurium, UniProt P66746 1-203)", "T1 sequence": "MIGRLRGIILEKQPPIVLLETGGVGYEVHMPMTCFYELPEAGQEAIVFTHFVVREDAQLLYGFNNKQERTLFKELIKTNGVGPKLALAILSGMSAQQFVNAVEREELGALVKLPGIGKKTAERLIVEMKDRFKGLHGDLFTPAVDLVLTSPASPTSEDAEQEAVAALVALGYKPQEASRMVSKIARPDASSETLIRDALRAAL", "assay": "EMSA; 5 mM EDTA; complex II (two tetramers) saturated at >500 nM RuvA; complex I (one tetramer) at <200 nM; EMSA: 30 mM Tris-HCl pH 8, 5 mM EDTA, 1 mM DTT, 100 ug/ml BSA, 30 min at 37 C; 6% PAGE at 4 C in 0.5x TAE", "conditions": "protein: recombinant; tags: C-terminal His4; chain copies: 4; label: 5'-32P on one strand; four-way junction 1:2 2:3 3:4 4:1"}, "[3]": {"target": "B1", "assay": "cryo-EM structure; same reconstitution of the RuvAB-Holliday junction hetero-complex, on ice 30 min before vitrification (dataset t1)", "conditions": "both partners purified"}}}
{"binder": "B1", "values": [{"measurement": "stoichiometry N", "setting": "[1]", "value": 4}, {"measurement": "stoichiometry N", "setting": "[2]", "value": 6}]}
{"binder": "HJ-Y2Ap (immobile Holliday junction) (structured_DNA) DNA 1: CTCATCGAGAATCTGCCGAGAGACCGAGCAGAATTCTATGTGTTTACCAAGCGCTG DNA 2: CAGCGCTTGGTAAACACATAGAATTCTGCTCGGTCTGAGCCGTCTAAGAGACCTAG DNA 3: CTAGGTCTCTTAGACGGCTCACTGGCTGTGGGATCCGAGCTGTCTAGAGACATCGA DNA 4: TCGATGTCTCTAGACAGCTCGGATCCCACAGCCAGTCTCGGCAGATTCTCGATGAG", "values": [{"measurement": "binding result", "setting": "RuvA", "value": "binds"}]}
{"binder": "RuvA from S. typhimurium (natural protein, UniProt P66746 1-203, looked up, RuvA, Holliday junction branch migration protein, Salmonella typhimurium; three domains (I, II, III); Tetramer in solution by gel filtration; two tetramers (eight chains) on the Holliday junction in the cryo-EM complex; Cloned into pET-52b(+) by NcoI and SacI; also called RuvA (S. typhimurium); recombinant S. typhimurium RuvA; source: E. coli BL21(DE3), purified (HisTrap, Superdex 200 SEC)) MIGRLRGIILEKQPPIVLLETGGVGYEVHMPMTCFYELPEAGQEAIVFTHFVVREDAQLLYGFNNKQERTLFKELIKTNGVGPKLALAILSGMSAQQFVNAVEREELGALVKLPGIGKKTAERLIVEMKDRFKGLHGDLFTPAVDLVLTSPASPTSEDAEQEAVAALVALGYKPQEASRMVSKIARPDASSETLIRDALRAAL", "values": [{"measurement": "stoichiometry N", "setting": "[3]", "value": 1, "unit": "RuvA^D3 per RuvB hexamer"}, {"measurement": "stoichiometry N", "setting": "[2]", "value": 4}]}
